{"source": "patent US20250277199", "about": "“NOVEL CRISPR-CAS NUCLEASES FROM METAGENOMES” (Brain Biotech AG, published 2025)", "molecular_target": "T1, BMC07 (uncultured bacterium (metagenome))", "T1 chain": "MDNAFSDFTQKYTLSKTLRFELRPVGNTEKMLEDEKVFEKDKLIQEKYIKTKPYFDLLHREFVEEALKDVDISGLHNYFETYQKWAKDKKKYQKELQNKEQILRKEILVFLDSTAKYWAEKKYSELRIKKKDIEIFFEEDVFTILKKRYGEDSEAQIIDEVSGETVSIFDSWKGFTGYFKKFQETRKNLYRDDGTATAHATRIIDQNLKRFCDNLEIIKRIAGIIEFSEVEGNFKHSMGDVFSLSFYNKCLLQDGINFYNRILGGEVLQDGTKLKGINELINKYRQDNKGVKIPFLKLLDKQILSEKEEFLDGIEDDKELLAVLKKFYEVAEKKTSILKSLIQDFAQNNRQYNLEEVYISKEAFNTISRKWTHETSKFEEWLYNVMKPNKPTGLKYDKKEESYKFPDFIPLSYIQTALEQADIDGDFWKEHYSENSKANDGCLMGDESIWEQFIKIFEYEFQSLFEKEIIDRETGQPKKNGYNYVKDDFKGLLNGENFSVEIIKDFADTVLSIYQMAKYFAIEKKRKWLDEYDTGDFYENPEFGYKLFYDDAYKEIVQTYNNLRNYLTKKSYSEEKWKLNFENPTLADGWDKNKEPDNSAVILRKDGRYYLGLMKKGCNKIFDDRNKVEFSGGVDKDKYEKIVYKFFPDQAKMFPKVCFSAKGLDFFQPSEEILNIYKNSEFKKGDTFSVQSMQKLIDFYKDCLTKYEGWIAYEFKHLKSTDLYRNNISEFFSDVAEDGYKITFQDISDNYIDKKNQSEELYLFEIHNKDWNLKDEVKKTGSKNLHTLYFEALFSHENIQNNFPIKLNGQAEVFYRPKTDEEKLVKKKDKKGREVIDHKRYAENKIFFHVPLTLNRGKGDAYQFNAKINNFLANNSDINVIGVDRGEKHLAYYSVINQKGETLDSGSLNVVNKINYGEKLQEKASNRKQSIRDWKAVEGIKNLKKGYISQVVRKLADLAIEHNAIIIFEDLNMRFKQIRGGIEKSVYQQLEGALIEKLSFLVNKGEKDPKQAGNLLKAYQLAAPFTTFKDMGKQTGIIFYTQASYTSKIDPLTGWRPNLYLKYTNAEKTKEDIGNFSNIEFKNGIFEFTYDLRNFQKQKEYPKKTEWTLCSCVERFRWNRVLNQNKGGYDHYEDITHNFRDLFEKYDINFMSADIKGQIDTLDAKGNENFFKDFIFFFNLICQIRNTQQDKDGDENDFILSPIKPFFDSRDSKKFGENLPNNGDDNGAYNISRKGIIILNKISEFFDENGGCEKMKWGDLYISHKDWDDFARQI", "experiment": "cell_activity; PAM not stated; E. coli depletion, 30 C", "method_in_brief": "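E. coli carrying arabinose-induced (0.2%) BMC nuclease, grown at 30° C., made electrocompetent and electroporated with 50-100 ng plasmid carrying gRNA against malQ. Transformants plated on selective M9-glucose agar with kanamycin/ampicillin (± nourseothricin), and growth scored after 48 h at 30° C.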"}
{"binder": "malQ gRNA (BMC stem-loop + 24 nt spacer) ; malQ protospacer (ssRNA ; dsDNA) RNA: GAUUUCUACUAUUGUAGAUGUGGCGGUACGUUGAUGCAUCGCG DNA 1: GTGGCGGTACGTTGATGCATCGCG DNA 2: CGCGATGCATCAACGTACCGCCAC", "values": [{"measurement": "activity", "value": "> 99.9", "unit": "% colony reduction"}]}
